{
  "source": "paper PMC5026608",
  "proteins": {"B1": {"name": "DnrK (Streptomyces peucetius) (protein)", "chain": "MTAEPTVAARPQQIDALRTLIRLGSLHTPMVVRTAATLRLVDHILAGARTVKALAARTDTRPEALLRLIRHLVAIGLLEEDAPGEFVPTEVGELLADDHPAAQRAWHDLTQAVARADISFTRLPDAIRTGRPTYESIYGKPFYEDLAGRPDLRASFDSLLACDQDVAFDAPAAAYDWTNVRHVLDVGGGKGGFAAAIARRAPHVSATVLEMAGTVDTARSYLKDEGLSDRVDVVEGDFFEPLPRKADAIILSFVLLNWPDHDAVRILTRCAEALEPGGRILIHERDDLHENSFNEQFTELDLRMLVFLGGALRTREKWDGLAASAGLVVEEVRQLPSPTIPYDLSLLVLAPAATGA"}},
  "key": {"[1]": {"substrate": "C[S+](CC[C@H](N)c1nn[nH]n1)C[C@H]1O[C@@H](n2cnc3c(N)ncnc32)[C@H](O)[C@@H]1O", "assay": "methyltransferase assay, HPLC / A410", "assay_type": "biochemical, Streptomyces peucetius", "details": "saturating ClNP 1.5 mM, 100 mM Tris pH 8.0, 37 °C, methyl donor"}, "purified protein": {"substrate": "C[S+](CC[C@H](N)C(=O)O)C[C@H]1O[C@@H](n2cnc3c(N)ncnc32)[C@H](O)[C@@H]1O", "assay": "purified protein", "details": "saturating ClNP 1.5 mM, 100 mM Tris pH 8.0, 37 °C, methyl donor"}},
  "data": [
    {"protein": "B1", "values": [
      {"measurement": "Km", "setting": "[1]", "result": "335 ± 40", "unit": "µM"},
      {"measurement": "kcat", "setting": "[1]", "result": "0.000517 ± 1.67e-05", "unit": "s⁻¹"},
      {"measurement": "Km", "setting": "purified protein", "result": "138 ± 7", "unit": "µM"},
      {"measurement": "kcat", "setting": "purified protein", "result": 0.000283, "unit": "s⁻¹"}
    ]}
  ]
}
